Test results as given in patent US8198236B2, “Methods and compositions for the treatment of cancer” (Washington University, priority 2007, dated 2012).

Molecular target: T1, LRP6 (Homo sapiens, UniProt O75581)
T1 construct: expressed in transfected cells; host or cells: human HT1080 cells, retroviral vector pLNCX2
Experiment: LRP6-mediated 125I-DKK1 degradation in LRP6-transduced HT1080 cells
Type: cell-based
Conditions: 500 nM unlabeled, 4 hours at 37° C.
Protocol: Ligand degradation was performed using the methods as described in Li, Y., et al., J. Biol. Chem. 275: 17187-17194, 2000. Briefly, 2×10^5 cells were seeded into 12-well dishes 1 day prior to assay. Pre-warmed assay buffer (minimal Eagle's medium containing 0.6% BSA with radioligand, 0.6 ml/well) was added to cell monolayers in the absence or the presence of unlabeled 500 nM RAP or 500 nM Mesd, followed by incubation for 4 hours at 37° C. Thereafter, the medium overlying the cell monolayers was removed and proteins were precipitated by addition of BSA to 10 mg/ml and trichloroacetic acid to 20%. […] After each time point, the plates were quickly placed on ice and the assay buffer was replaced with cold stop/strip solution. ^125I-anti-HA IgG that remained on the cell surface was stripped by incubation of cell monolayers with cold stop/strip solution for a total of 20 minutes (0.75 ml for 10 minutes, twice) and counted. Cell monolayers were then solubilized with low-SDS lysis buffer and counted. […] The fraction of internalized ^125I-anti-HA IgG after each time point was calculated and plotted.
RAP is a receptor antagonist for members of the LDLR family, and is able to inhibit the binding of most known ligands of the LDLR family members. […] Cell-surface-bound Myc-tagged DKK proteins were fixed and detected by immunofluorescence staining with anti-Myc antibody. […]

T1 sequence (O75581 20-1613): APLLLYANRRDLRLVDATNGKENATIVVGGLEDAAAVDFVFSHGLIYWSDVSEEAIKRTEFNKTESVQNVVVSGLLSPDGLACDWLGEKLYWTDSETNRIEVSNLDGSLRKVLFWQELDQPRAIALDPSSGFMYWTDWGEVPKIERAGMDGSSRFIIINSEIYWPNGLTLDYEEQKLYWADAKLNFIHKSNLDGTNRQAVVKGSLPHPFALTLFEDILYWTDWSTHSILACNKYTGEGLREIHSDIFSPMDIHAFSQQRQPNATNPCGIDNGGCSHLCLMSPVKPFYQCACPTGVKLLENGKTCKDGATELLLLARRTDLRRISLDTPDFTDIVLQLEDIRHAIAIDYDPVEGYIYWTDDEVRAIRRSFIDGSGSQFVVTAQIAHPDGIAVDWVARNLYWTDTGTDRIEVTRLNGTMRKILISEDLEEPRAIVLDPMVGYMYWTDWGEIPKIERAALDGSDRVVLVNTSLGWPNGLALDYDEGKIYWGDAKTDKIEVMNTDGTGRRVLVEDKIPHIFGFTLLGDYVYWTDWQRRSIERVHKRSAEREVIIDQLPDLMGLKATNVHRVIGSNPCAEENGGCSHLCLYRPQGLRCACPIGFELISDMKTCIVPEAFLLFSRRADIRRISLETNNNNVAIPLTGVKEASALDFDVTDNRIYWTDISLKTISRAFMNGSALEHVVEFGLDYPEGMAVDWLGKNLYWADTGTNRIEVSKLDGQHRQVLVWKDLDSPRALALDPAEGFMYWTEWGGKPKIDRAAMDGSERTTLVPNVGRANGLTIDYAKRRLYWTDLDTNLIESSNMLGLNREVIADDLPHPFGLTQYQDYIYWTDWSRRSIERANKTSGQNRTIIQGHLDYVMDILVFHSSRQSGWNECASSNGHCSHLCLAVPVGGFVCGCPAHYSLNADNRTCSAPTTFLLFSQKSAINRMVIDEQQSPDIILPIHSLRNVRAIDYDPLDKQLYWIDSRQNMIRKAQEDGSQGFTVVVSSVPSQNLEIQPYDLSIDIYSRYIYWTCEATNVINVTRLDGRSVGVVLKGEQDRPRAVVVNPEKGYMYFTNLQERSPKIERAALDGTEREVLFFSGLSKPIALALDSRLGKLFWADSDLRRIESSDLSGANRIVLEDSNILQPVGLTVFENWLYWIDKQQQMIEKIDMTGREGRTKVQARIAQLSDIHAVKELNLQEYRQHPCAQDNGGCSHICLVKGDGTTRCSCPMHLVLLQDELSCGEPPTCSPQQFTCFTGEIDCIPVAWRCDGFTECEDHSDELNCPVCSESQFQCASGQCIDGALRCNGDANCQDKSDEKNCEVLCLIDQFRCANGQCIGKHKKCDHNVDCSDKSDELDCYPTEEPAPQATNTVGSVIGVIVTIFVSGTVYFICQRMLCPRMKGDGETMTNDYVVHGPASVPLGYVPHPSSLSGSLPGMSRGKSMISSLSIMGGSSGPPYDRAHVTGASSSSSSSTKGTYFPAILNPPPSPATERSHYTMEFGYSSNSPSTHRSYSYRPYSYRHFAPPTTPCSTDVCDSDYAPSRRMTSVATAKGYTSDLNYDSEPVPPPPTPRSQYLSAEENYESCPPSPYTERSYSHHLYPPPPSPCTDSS

B1: Mesd: Recombinant full-length mouse Mesd expressed in E. coli, N-terminal polyhistidine tail, lacking the signal peptide (protein)
chain: ADTPGEATPPPRKKKDIRDYNDADMARLLEQWEKDDDIEEGDLPEHKRPSAPIDFSKLDPGKPESILKMTKKGKTLMMFVTVSGNPTEKETEEITSLWQGSLFNANYDVQRFIVGSDRAIFMLRDGSYAWEIKDFLVSQDRCAEVTLEGQMYPGKGGGSKEKNKTKPEKAKKKEGDRKPRASKEDNRAGSRREDL
modifications: left off: small tags and cut ends
notes: Recombinant full-length mouse Mesd expressed in E. coli, N-terminal polyhistidine tail, lacking the signal peptide
With B1 as the molecule, how does the “Effect on increased 125I-DKK1 degradation of LRP6-expressing HT1080 cells” value read?
Its value is “abolished”.
